Laboratory results from paper PMC3939855 (Nature immunology, 2013).
Like-named read-outs stand apart in the source and are kept apart here.

Legend:
[1] = target: the molecule itself; assay: native gel or EMSA
[2] = target: the molecule itself

B1: ELF4 (endogenous, mouse cells) (natural protein)
chain: not shown
stoichiometry N [1]: 2

B2: ELF4 (expressed from a plasmid; tag not stated for the experiment) (natural protein)
chain: not shown
stoichiometry N [2]: 2

B3: ELF4 (endogenous, human cells) (natural protein)
chain: not shown
stoichiometry N [1]: 2
